Key:
[1] = target: SARS-CoV-2 Omicron (BA.1) Spike (pCAGGS-SARS-CoV-2 BA.1 Spike) (UniProt P0DTC2); settings: parent: est. 1.0; read off a plot
[2] = target: SARS-CoV-2 Wuhan-1 Spike (S), C-terminal 6xHis (pcDNA5) (UniProt P0DTC2); settings: parent: est. 1.0; read off a plot

**Q.** How did the ratio to parent [1] turn out when “HA-tagged full-length BST2 (pcDNA5) (from UniProt Q10589) EC2Ala” was run?
**A.** The ratio to parent was 1.

**Q.** What about the ratio to parent [2] of the same substance?
**A.** Its ratio to parent is 0.74.

— paper PMC10798645
